Source: publication PMC11585616 (2024)
Like-named read-outs stand apart in the source and are kept apart here.

Assays:
Test in all cases: ITC
HiSiaP = HiSiaP (Haemophilus influenzae, UniProt P44542 24-329)
VcSiaP [1] = molecular target: T1, VcSiaP (Vibrio cholerae, UniProt Q9KR64 23-321)
VcSiaP [2] = molecular target: T1, VcSiaP; remark: listed apart in the source

T1 sequence (Q9KR64 23-321): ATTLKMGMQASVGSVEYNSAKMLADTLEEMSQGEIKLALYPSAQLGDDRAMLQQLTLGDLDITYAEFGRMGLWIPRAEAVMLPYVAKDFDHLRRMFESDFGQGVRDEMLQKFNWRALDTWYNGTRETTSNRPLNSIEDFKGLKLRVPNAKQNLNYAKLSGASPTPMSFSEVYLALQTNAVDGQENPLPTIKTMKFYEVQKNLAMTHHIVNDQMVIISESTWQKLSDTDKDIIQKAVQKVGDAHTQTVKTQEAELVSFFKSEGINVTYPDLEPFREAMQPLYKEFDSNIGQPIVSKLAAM
Sequence of HiSiaP (P44542 24-329): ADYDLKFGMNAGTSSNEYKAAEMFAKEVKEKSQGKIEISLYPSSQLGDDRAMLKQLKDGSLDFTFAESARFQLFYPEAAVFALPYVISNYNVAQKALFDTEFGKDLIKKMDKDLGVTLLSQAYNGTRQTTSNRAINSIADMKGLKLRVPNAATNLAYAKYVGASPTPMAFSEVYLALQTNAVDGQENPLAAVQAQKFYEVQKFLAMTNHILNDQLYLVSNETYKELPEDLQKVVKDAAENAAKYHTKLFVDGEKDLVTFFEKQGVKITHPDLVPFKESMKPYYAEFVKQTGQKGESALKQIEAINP

B1: VHHVcP #2 (VHH)
VHH: QVQLVESGGRLVQTGGSLRLSCAASGDTFSNYVMGWFRQAPGKEREFVAAISWTGANSYYADSVAGRFTISRDNAKNTVALQMNSLKPEDTAIYYCAADHFHVTHRKYDYWGQGTQVTVSS
Binder B1 has a Kd (HiSiaP) of 10700 nM, a Kd (VcSiaP [1]) of 5.61 nM and a Kd (VcSiaP [2]) of 1.97 nM.
